Where a chain is given by its changes, count along the chain named. In names and notes the source's numbering stands.
B1: E2M HLP (scFv)
scFv: EVQLLESGGGLVQPGGSLKLSCAASGFTFNGYAMNWVRQAPGKGLEWVARIRSKYNNYATYYADSVKERFTISRDDSKNTAYLQMNNLKTEDTAVYYCVRHRNFGNSYLSWFAYWGQGTLVTVSSGGGGSGGGGSGGGGSELVVTQEPSLTVSPGGTVTLTCRSSTGAVTSGYYPNWVQQKPGQAPRGLIGATDMRPSGTPARFSGSLLGGKAALTLSGVQPEDEAEYYCALWYSNRWVFGGGTKLTVL
notes: crude periplasmic preparation, Flag and His6 tagged
B2: MCSP-G4 HLP × E2M HLP (bispecific antibody)
chain: QVQLVQSGAEVKRPGASMKVSCKASGYTFTNYYIHWVRQAPGQGLEWMGWINPNSGATNYAQKFQGRVTMTRDTSTSTVYMELSSLRSEDTAVYYCAKSWVSWFASWGQGTLVTVSSGGGGSGGGGSGGGGSELVMTQSPDSLAVSLGERATINCKSSQSVLNSSNNRNYLAWYQQKPGQPPKLLIYWASTRESGVPDRFSGSGSGTDFTLTISGLQAEDVAVYYCQQHYSTPFTFGPGTKVDIKSGGGGSEVQLLESGGGLVQPGGSLKLSCAASGFTFNGYAMNWVRQAPGKGLEWVARIRSKYNNYATYYADSVKERFTISRDDSKNTAYLQMNNLKTEDTAVYYCVRHRNFGNSYLSWFAYWGQGTLVTVSSGGGGSGGGGSGGGGSELVVTQEPSLTVSPGGTVTLTCRSSTGAVTSGYYPNWVQQKPGQAPRGLIGATDMRPSGTPARFSGSLLGGKAALTLSGVQPEDEAEYYCALWYSNRWVFGGGTKLTVL
B3: A2J HLP (scFv)
scFv: B1 scFv with G31V, E68K, R102G, F112W
notes: as for B1
B4: EGFR-21-63 LH × A2J HLP (bispecific antibody)
chain: DIVLTQSPASLPVSLGQRATISCRASQSVSSSTYSYIHWYQQKPGQPPKLLITYASNLESGVPARFSGSGSGTDFTLDIHPVEEDDSSTYYCQHSWEIPFTFGSGTKLEIKGGGGSGGGGSGGGGSQVQLQQSGPDLVKPGASVKMSCKASGHTFTDCVIIWVKQRAGQGLEWIGQIYPGTGRSYYNEIFKGKATLTADKSSNTVHIQLSSLTSEDSAVYFCALSTLIHGTWFSYWGQGTLVTVSSGGGGSEVQLLESGGGLVQPGGSLKLSCAASGFTFNVYAMNWVRQAPGKGLEWVARIRSKYNNYATYYADSVKKRFTISRDDSKNTAYLQMNNLKTEDTAVYYCVRHGNFGNSYLSWWAYWGQGTLVTVSSGGGGSGGGGSGGGGSELVVTQEPSLTVSPGGTVTLTCRSSTGAVTSGYYPNWVQQKPGQAPRGLIGATDMRPSGTPARFSGSLLGGKAALTLSGVQPEDEAEYYCALWYSNRWVFGGGTKLTVL
notes: also called EGFR LH × A2J HLP
B5: EGFR-21-63 LH × E2M HLP (bispecific antibody)
chain: B4 chain with V282G, K319E, G353R, W363F
notes: also called EGFR LH × E2M HLP

Columns and labels:
[1] = molecular target: T1, 1-27 CD3-EpCAM, swine 27 mer (domestic swine (Sus scrofa); cynomolgus); experiment: FACS on 293-HEK transfectants
T1 construct: Negative control, on transfected cells; also called 1-27 N-terminal CD3 epsilon of swine fused to cynomolgus EpCAM
T1 chain: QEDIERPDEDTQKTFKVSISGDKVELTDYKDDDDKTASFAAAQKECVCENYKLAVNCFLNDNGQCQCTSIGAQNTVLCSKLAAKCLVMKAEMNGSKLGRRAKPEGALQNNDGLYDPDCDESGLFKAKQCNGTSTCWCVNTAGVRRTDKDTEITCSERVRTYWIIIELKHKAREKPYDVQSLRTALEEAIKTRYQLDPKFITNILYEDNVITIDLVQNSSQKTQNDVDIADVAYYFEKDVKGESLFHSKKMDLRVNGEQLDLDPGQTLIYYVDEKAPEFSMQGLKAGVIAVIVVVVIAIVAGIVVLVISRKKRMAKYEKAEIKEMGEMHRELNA

1-27 CD3-Fc [2] = molecular target: T2, 1-27 CD3-Fc (human); experiment: ELISA, captured 1-27 CD3-Fc
T2 construct: also called 27 aa huCD3E; human CD3 epsilon (aa 1-27)-Fc fusion protein

[3] = molecular target: T3, 1-27 CD3-EpCAM, human 27 mer (human; cynomolgus); experiment: FACS 293-HEK transfectant
T3 construct: On transfected cells; also called N-terminal amino acids 1-27 of human CD3 epsilon fused to Flag tagged cynomolgus EpCAM
T3 chain: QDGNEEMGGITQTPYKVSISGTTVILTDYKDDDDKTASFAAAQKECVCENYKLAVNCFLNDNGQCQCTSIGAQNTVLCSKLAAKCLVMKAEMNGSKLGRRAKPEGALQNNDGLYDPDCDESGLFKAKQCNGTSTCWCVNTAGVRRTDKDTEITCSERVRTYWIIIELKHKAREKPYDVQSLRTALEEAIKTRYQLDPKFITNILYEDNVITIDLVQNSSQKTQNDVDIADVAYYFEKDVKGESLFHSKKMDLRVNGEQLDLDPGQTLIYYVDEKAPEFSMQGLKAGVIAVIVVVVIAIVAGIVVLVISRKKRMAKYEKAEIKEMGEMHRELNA

[4] = molecular target: T4, human CD3 (native, on HPB-ALL cells or human PBMC) (human, UniProt P07766 23-207); experiment: FACS HPB-ALL
T4 construct: whole, on cells; Other chains of the CD3/TCR complex are present on the cells; also called human CD3 epsilon; native CD3 on intact T cells

1-27 CD3-Fc [5] = molecular target: T2, 1-27 CD3-Fc; experiment: SPR (Biacore), 1-27 CD3-Fc immobilised

T4 sequence (P07766 23-207): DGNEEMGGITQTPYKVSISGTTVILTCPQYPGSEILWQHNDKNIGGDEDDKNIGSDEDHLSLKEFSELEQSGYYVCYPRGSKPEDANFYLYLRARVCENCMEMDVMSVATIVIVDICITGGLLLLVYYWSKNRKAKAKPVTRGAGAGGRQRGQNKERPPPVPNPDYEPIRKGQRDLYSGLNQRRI

Binder	binding result (1-27 CD3-Fc [2])	Kd (1-27 CD3-Fc [5])	also measured
B1	binds		binding result [1]: no binding; binding result [3]: binds
B2			binding result [4]: binds
B3	binds		
B4		0.249 µM	
B5		2.46 µM	

From patent US20100150918A1 (MICROMET, published 2010)
